The values that follow come from paper PMC10218236, “Structural Optimization and Interaction Study of a DNA Aptamer to L1 Cell Adhesion Molecule”.

The target of the data set is L1CAM protein (Sino Biological) (UniProt P32004 20-1120). The experiment in a line: DMS footprinting; 100 nM DNA, 300 nM L1CAM; PBS, 4.5 g/L glucose, 5 mM MgCl2, 1 mg/mL BSA, 0.1 mg/mL herring sperm DNA; 30 min at 4 °C (or 25/37 °C); pH not stated. Particulars: protein: commercial; label: FAM (3' FAM in DMS footprinting); hairpin, two stems, two loops, T bulge in stem I.
L1CAM protein (Sino Biological), sequence (P32004 20-1120): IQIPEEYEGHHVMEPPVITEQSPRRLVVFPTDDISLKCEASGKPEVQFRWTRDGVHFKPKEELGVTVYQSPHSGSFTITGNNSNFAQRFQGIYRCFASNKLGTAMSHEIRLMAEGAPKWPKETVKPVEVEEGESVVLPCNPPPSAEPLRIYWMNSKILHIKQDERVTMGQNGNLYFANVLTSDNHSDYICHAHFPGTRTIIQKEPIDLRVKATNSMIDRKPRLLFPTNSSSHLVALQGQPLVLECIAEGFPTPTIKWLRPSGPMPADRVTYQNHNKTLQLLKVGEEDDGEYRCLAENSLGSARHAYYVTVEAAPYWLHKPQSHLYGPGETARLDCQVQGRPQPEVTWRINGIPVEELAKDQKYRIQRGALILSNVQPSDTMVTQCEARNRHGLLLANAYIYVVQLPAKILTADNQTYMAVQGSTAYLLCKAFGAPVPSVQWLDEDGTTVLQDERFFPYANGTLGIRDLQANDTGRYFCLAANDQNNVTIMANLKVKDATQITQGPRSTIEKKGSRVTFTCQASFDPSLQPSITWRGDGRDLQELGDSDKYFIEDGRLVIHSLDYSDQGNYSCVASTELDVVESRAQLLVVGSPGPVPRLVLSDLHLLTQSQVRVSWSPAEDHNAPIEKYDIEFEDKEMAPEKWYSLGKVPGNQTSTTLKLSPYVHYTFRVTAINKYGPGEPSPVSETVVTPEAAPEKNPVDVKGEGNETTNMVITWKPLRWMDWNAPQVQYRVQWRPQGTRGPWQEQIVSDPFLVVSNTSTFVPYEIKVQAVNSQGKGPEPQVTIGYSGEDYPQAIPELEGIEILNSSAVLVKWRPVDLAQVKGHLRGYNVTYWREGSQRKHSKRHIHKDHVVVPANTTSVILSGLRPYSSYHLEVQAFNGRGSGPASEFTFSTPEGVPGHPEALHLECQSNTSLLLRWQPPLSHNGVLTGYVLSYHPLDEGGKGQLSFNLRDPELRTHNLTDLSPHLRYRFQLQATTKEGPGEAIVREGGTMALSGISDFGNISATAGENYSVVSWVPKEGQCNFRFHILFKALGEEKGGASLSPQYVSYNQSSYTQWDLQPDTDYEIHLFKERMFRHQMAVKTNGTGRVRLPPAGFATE

B1: yly20 (ssDNA)
DNA: CAGATAGGGGGTAGCTCGGTCGTGTTTTTGGGTTGTTTGGTGGGTCTTCTG
For B1, the binding result is “binds”.
